From PMC8926328 come the findings set out here.

The target in the test is HBsAg-SpyCatcher VLPs (hepatitis B virus). Description: SDS-PAGE of the covalent conjugate.

The substance “RBD-SpyTag (from UniProt P0DTC2) (domain or fragment)” yielded a fraction unconjugated of less than 20%.
